In the DeepSol protein solubility set:

Assay: soluble on expression in E. coli; label from the status in PepcDB or PDB records

Soluble on expression in E. coli, not soluble:
MGSDKIHHHHHHMNLWDKKAKTYARYQNTLNTIQKQTFEYLQNLKISFQDKSIIDIGCGTGVWTLHLAKEAKEILALDSANAMLEILQEDAKKLNLNNIKCKNLSFETWMQNNPNVKFDLAFLSMSPALQNEKDYTNFLNLAKIKIYLGWADYRKSDFLDPIFKYFNTEFKGFYKKDLENYLLEKNIFFHKIVFDETRKVQRTKEEAIENALWHLSMNKITASKETVSSFVENNITETIESKIKLLIINNL
MGSDKIHHHHHHMNNINDSSAIHITPETFVKQIRSLGRYNFPEPALVDPDGIGIVGIGGNLAPETLISAYAQGLFPWFNDDEPIAWWCPEPRCVMQPTDYQPSKSLRKQANNARWQLTLNQAFNEVIHACSLPRSNGLPEGEHTWIHDDMIEAYNELHAQGFAHSVEVWDDQGQLVGGLYGLKIGSIYFGESMFHIASNASKLAFWGLMRLCTQSNVTLVDCQLPNEHLMSLGAITLSRTEFLTQLDTLISNGSDAWHKNSHRPLAVSLLGNLQPWQLNP
MGSDKIHHHHHHMNNLIVTPGYASQFSCIGSACEDSCCHDWTIIFDKKSYKNTLNHPKLASLAKEAFIETKTDANQWAQIKLNANGTCPFVNEQQLCAIHAAAGETALSHTCKTYPRINNVIATTKYESLSLSCPEAARLVLFDANAFQFEAKSGGAKRPTAANPAWLEKTYDYSLDLLINMGVDWQQALMAIGLLVKVSDQVRQNALPIAQIDQRFEQLILLAQTKEITAQYQKIPYTPQPQTHAFVSIHDQLCKLHSRSLKPRFTSLNEAIGLLCNEGNQYQIDHLNKAWEEKALPALSNYQDLFDRYILYSLYHEHFPMIHSQQPWMAFRLLVIDCFMIRCYLSAMAFKNNGLTESDIVLCFQLYSVVRQHKAKFAEGINQTLQECGIDSIPAAISLLKTS
MGSDKIHHHHHHMNPVTHKAVLLLRPGKSPDDFTQQLRKTGRECFVHSFIEIEPLPVNKEQLTQIKQKHWDGIVIVSKNAAHYASRAGFSGVPSKYYAVGPGTASFACKHLNTAVSCPAFIHQSEGLLELSELQKLQQQNWLIIRGEGGRELLADAIRARGASVDYWEVYRRKQLTLNDPELIQQWISSVGTIVVTSAEQLGYFLSSMPNSAQSWLDSCQWIVPSHRLKGLIPFGQSDNIKVTGSAADAILMNALIADGKTHD
MGSDKIHHHHHHMNQNRIPLYEALIEFKERRPLSFHVPGHKNGLNFPQGAVEEFKDILSIDVTELSGLDDLHSPFECIDEAQQLLADVYEVEKSYFLINGSTVGNLAMILSCCREHDIVLVQRNCHKSIINGLKLAGANPIFLDSWIDEAYNVPVGIHDEIIKEAIEKYPNAKALILTHPNYYGMGMDLEASIAYAHAHKIPVLVDEAHGAHFCLGGAFPKSALAYGADIVVHSAHKTLPAMTMGSYLHINSRLVKEERVSTYLSMLQSSSPSYPIMASLDIARFTIARIKEKGHDEIVEFLREFKEELSSIPQIAILQYPLQDELKVTVQTRCQLSGYELQSVLEKVGIYTEMADPYNVLFILPLQVNKTYMKAVEMIRAALQSYEVKDKTESIRYTYKGEISPLPYTYKQLEGYETKVVSVEEAVGMIAAEMVIPYPPGIPLIMYGERITSEHKEQIMHLERAGARFQGSTKYMKVYDIESRF
MGSDKIHHHHHHMNREFYGKIIISGEIEAVTGLHIGSQREVSEIGGIDNPVIKDPHTGLPYIPGSSLKGRLRSLFEIYVNTRLDELKSKYSSLSNYSKGSCRDVGKENCGKFFNKKLNNVWIHVCSTYEMARNCPVCRLYGSSGKESNFPSRLIVRDAFLTEEWKKKWENGEAITEAKIEVGIDRVTSQANPRTTERVVAGTRFDFEIIYTIEDLKEWKDDLRNLLTSMLLLEDSYLGGSGSRGYGKVRFHVKGLELRPLEYYRTGDEGKIVKKTEYERVEDLLKNFETITSEFDRRVGGIEG
MGSDKIHHHHHHMNSLPTESPQSKKSLPSTSMLAAFDAAARTGSFTAAAKDLALTQGAISRQVNALEMQISVNLFHRHKQNISLTEAGKTYAKEVNSALSHIRSATLNLMTNPDGGILNIAILPTFGSRWLMPRLADFLAKHPRITINTVCKLSQFDFSHEDIHCAIHFGKADWSQANCTFLMAEESVPVCSPKLFEQAELAKVDNVCARLINLPLLHIATRPNAWQHWFDEHNVDSTTKEQPKKKTLQDMHFEQFSIVTNAAVAGLGVALLPKFLVESELQRGELQVICNKPQRTDNGYYLVTPNDKLNYAPMVAFTRWLSQVIKSEKPSILNK
MGSDKIHHHHHHMNSPAMSPNTLGIDFGTSNSAAGLAVAGRPWLVELEPGETTLPTAVFFDSDSKKMRIGRSATRALIEGEEGRFMRALKSLLGTSLLYEKRRLGGVTMDFTDVIAHFLREVKTRAETATRMEFTHALSGRPVKFHSKDETRNARAEEDLRHCYKKAGFQDVTFMYEPEAALRAARPHPGIGLVVDIGGGTSDFTCFEQDATGGTRILASHGLRLGGTDFDRQISIDHVMPHLGRGAMIRNSFGEGSLPAPNRIFNDLATWQMIPFLYGLDTRRAARDLAQNAEDPTTLNRLVQVLEDELGHDLAFATEAGKIRANGSDDAGAQIDLRLIERGLSAALPRAALEASLAQMVREIQDEAKETLRLADVAPEAVTRCVMVGGSALLMAVRAALQDLCPTAEIETERALTAVADGLALETQDGAA
MGSDKIHHHHHHMNTGASAGVCDAFDRGRFRNAIEVFSSRMPAEIRTARASDVDDLAAIEKAVFSSDRISRRSFRLFIERETAETLVAEVDGRVAGYAIVLFRKGSGVARLYSIAVGPFFGALGIGRQLLTAAEEAAFEHDRMMLRLEVREDNSRAIRIYEQAGYRKIGREPGYYEDGATALRYEKTLRGDLPVATRVPFYQQTCEFTCGPCCLMMAMANFDRGFVPDPVMEIRLWREATTVFMMSGPGGCEPFGLAVSGYESGLAAEIFVSFYGALFLQSVRSEDKRRVMELAQVDFRRRAELYGIPVNCRPFTLDDIRTAIAAGKLVLVLISGFLMFGKKVPHWVLAIGDDGDHILIHDPWVEDERQETILDAANIPVPYGIFMNMAQFGRDGLRAAITLGKRDTQ
MGSDKIHHHHHHMNTRILNALKQTTLIEEKQKASHCFVEDMPPYAINQELSLKEHGRVLSNYFFKNKDIYISRHNRYADYPTHTHTFLEMNYMLQGHATEIVDDKKITLNTGDLLLLDEGSTHSIKALGDNDLLINILFRTKNISINLLNDLRRSNNIFYDFLLSQVIEDSNHKRDYLVFTKKRNNEVQETLDRIIDEYYLKRDFSNSIIKSYLSILLVQLVREYPLNGPHQENKSSLLAIKVLKAIAEEYKTVSLEELANRYNYNKNYLSNIFKSEVGQTFSEVLTRQRLIQAHTLIASTSLPIATIMEQVGIKNKTFFYQKYKNYYKTLPSTDR
MGSDKIHHHHHHMNTTQELHVIFGTGPLAQAVMRELLARNKRVRMINRSGKADIPSSVEIIASDAYNSENTRAVTTGATVVYQCAQPAYTQWPELFPSLQASIVEGVAANGAKLVVGDNLYMYGPVNGVLREDMPNAATTRKGRVRGQMTEALLDAHRRGIVRVAIGRASDFYGPLVLDSVMGDRIFPSVLTGKPASAIGEIDLPHTYTFIDDFGKALVVLGEEDKALGQIWHVPNAETITTRQFITIAFEEAGYPPKISKMGKFMMRLGGIFIPEARETVEMMYEFDEPFVVNHDKYVQAFGNHATPLREAIRHTLKWYSEHLKTLKT
MGSDKIHHHHHHMNWSQIISLVSAGNYMEVEKILQDYPYIVDMADHLREQKLKVIANLDTYVKRTMDSVEKLGGHAYLAKDKDEARKIIGDLVGEKKTVVFSKTNVAYEIGLREFLQERNNEVWETDLGEYLVQISRGWPTHIVAPALDMTREEAAKAVKKIDPSINENSKIEDIVAAVRKFLMSKYVKADVGITGANAVAADSGSVALVENEGNIRIDTVMPPMHIAVTGIDKIVPTMRDALDEVMVQAAYAGIFPPTYINVTSGPSSTADIELRRVSPATGPKDFHLVLIDNGRLEASKNEDLKEALLCIKCGRCYFSCPIYRTLGKEWISTKSPYNGPTGVMWNYITNKDPWPASYCVHSGGCKEVCPMKINIPEVIKYIKFIGSKQVGK
MGSDKIHHHHHHMNYTDTLKSVDLVLATGEVPLIIGESGIGKTALAKELAQQNQWSLVIINGNLLKEGEIGGLPTIESYVFSGPEAVNPLAATAAKTVGNEQGILQEKKSTVYAVHHKLREIDEAIARGQTVLLFIDEINRCEHTVQQELMNLILNREINGYILPEGVKILAAMNPSSKYGSDFDYQVVDMDAAQENRFVWLFMKPDHKQWIDWAIGAGIEPKVIEFISTFPDYLHKINEDDLRATPRSYERISSSYKIYQENKDSIPRSVFLNVVKGNVGRVIAEEFVNFAEADYSPLIAYDDIFSGTSLPESLRDKVKEESHTRLYLSARNILQTLESHLSKTPANAPDHAQSSMDRLVAFLKLYPVDLKIGIMKDIRSSYPEIYRQAIENEGFVDSYFESYGSLR
MGSDKIHHHHHHMPATVPFVGPEAIERQRNLPVKARIGANESGFGPSPKVHLALQAASSDIWKYADPENFDLKAALAAHYGLAADNFAVGEGVDDLLGLTVRLVIEQGLPVVTSLGGYPTFNFHVNGFGGQLVTVPYRQDREDLDGLLEAVRRENAPLAYLANPDNPMGSWHESHDVVAFARALPETCLLILDEAYSETAPAGSIPAVDALIDLPNVLRMRTFSKAYGLAGARIGYAIGTPGTVSAFDKIRNHFGMVRTSVAAALAALADQDYLTATVARIIAARERISSIARQNGLQPLASATNFVAVDCGRDPAYARSIVDGLMQHGVFIRMPGVAPLNRCIRISAGLPEDLDLLEQALPIVLRDIG
MGSDKIHHHHHHMPEIHQSIAQHYHERTKYDPETIASKSQRLDWAKQPVPFKEYKIGSAIDLKPYLQETPEVFVNDTNGQWWQRLSRLLFRSYGLTARMPSMGNTVYLRAAPSAGGLYPAEVYVVSRGTPLLSPGLYNYQCRTHSLIHYWESDVWQSLQEACFWHPALESTQLAIIVTAVFYRSAWRYEDRAYRRICLDTGHLLGNIELSAAITDYRPHLIGGFIDEAVNDLLYIDPLQEGAIAVLPLADLLDIQQNISPGCTALPSATETNYPQVPDGELLKYFHHHTQISASITGKLNLPTVIQEKSLEDKYNFPFCLKISTVSAPIYWGENLSDLEITMHKRRSTRAYNGEELTFDELKALLDFTYQPQNYIDQSLDNSPDYFDLNLIETFIAVCGVQGLEAGCYYYAPKAQELRQIRFKNFRRELHFLCLGQELGRDAAAVIFHTSDLKSAIAQYGDRVYRYLHMDAGHLGQRLNLAAIQLNLGVSGIGGFFDDQVNEVLGIPNDEAVIYITTLGRPR
MGSDKIHHHHHHMPERVLNFRALFLHGLYKMDKPKAYCRLFLPSFLLLSACTVDISQPDPSATAVDAEAKTWAVKFQHQSSFTEQSIKEITAPDLKPGDLLFSSSLGVTSFGIRVFSTSSVSHVAIFLGDNNVAEATGAGVQIVSLKKAMKHSDKLFVLRVPDLTPQQATDITAFANKIKDSGYNYRGIVEFIPFMVTRQMCSLNPFSEDFRQQCVSGLAKAQLSSVGEGDKKSWFCSEFVTDAFAKAGHPLTLAQSGWISPADLMHMRIGDVSAFKPETQLQYVGHLKPGIYIKAGRFVGLTR
MGSDKIHHHHHHMPETIKNISKKDAILKAALQLFSHRSFDGTTIPEIARVANVGAGTIYRYFISKEDLVNELFVRVLDDFTEHLQVGLHGQMDTRTRFHHLFNNAWNYVMNNVEAFLFINLNDEATYLNDRSRKSFSRMWDYIAEMVEQGADKGELIKLDPKFVASLVYGPLIPISKRFNNDNRQASQALAKALEEATWRAISTD
